These results are taken from patent US20220089755A1 (COMMISSARIAT A L ENERGIE ATOMIQUE ET AUX ENERGIES …, published 2022).

In assay [1] the target is T1, endothelin receptor subtype A (ETA-R) expressed on stably transfected CHO cells (CHO-ETAR) (UniProt P25101 21-427, limits assumed).
T1 construct: whole, on cells; also called endothelin type A receptor
T1 sequence (looked up): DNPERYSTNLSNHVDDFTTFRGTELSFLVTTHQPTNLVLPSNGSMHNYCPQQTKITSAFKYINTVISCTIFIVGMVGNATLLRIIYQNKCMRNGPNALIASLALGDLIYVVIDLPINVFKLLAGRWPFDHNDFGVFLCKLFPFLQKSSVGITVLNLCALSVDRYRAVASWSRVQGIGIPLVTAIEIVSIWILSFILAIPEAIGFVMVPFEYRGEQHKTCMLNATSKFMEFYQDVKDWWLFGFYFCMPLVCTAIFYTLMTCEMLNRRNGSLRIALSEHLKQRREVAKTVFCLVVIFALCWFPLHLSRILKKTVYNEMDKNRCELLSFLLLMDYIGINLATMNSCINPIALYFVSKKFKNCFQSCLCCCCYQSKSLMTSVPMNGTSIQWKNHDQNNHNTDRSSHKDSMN
The assay is described as follows: flow cytometry on CHO-ETAR cells, apparent Kd, one-site fit, with or without 100 nM ET1. The method, then: The fluorescence is quantified by flow cytometry on an FACSCalibur™ (BD Bioscience). A range of concentrations of antibodies lying between, at a maximum, 1 μM and, at a minimum, […] was incubated for 2 hours at 4° C. in the presence or not of 100 nM ET1 (preincubated for 30 minutes at 4° C.). At 90% confluence, the cells are detached in the presence of versene and then aliquoted in tubes (300 μl/300,000 cells) in the presence of a saturation buffer (PBS-SNC 5%-BSA 0.1%) stored at 4° C. After three washes in PBS buffer, 300 μl of secondary antibody labeled with Alexa Fluor™ 488 (AF-488) diluted to 1/400 was added and incubated for 60 minutes at 4° C. (Goat anti-mouse IgG, Invitrogen-ref A10684). For each antibody concentration point, after three washes in PBS, 10,000 cells were counted with flow cytometry.
The data were analysed in the GraphPad Prism software and the curves modelled according to the parameter: a specific binding site. […] The binding of RA63 was therefore not modified in the presence of ET1.
(In flow cytometry, cells or beads pass a laser one at a time.)

Assay [2] deals with T2, endothelin receptor subtype A (ETA-R) expressed on the surface of Gli-7 glioblastoma cells (human, UniProt P25101 21-427).
T2 construct: whole, on cells; also called ETA-R on Gli-7; ETAR on glioblastoma cells
T2 sequence (looked up): T1 sequence (looked up)
The assay is described as follows: flow cytometry on Gli-7 glioblastoma cells.

B1: Rendomab-A63 (antibody, mouse IgG2b, V domains shown)
VH: EVQLVESGGGLVQPKGSLKLSCAASGFTFNIYAMNWIRQAPGKGLEWIARIRSKSNNYATYYADSVKDRFTISRDDSQNMVYLQMNNLKTEDTAMYYCVSSYYSGSFFAYWGQGTLVTVSA
VL: DVLMTQTPLSLPVSLGDQASISCRSSQSIVYSNGKIYLEWYLQKPGQSPKLLIYKVSNRFSGVPDRFSGSGSGTDFTLKISRVEAEDLGVYYCFQGSHLPLTFGAGTKLELKR
notes: also called RA63; monoclonal murine antibody from the hybridoma CNCM I-5250
As to B1, the Kd in assay [1] is ~0.5 nM; in assay [2], ~15 nM.
